# Results from the supplement of paper PMC11316812.
# ± gives the standard deviation of the averaged measurements.
# What was measured:
# MCF7 = assay: percentage of EdU-negative (G0-arrested) nuclei per well, 72 h; higher = more G0 arrest; details: reference: sequence is the full UniProt precursor, the tested protein was the secreted form or ectodomain
# hTERT-HMEC = assay: as above; details: reference: sequence is the full UniProt precursor, the tested protein was the secreted form or ectodomain
# [1] = protein concentration 0.02125 µM
# [2] = protein concentration 0.2125 µM
# [3] = protein concentration 0.01225 µM
# [4] = protein concentration 0.1225 µM
# [5] = protein concentration 0.0225 µM
# [6] = protein concentration 0.0175 µM
# [7] = protein concentration 0.01025 µM
# [8] = protein concentration 0.1025 µM
# [9] = protein concentration 0.0255 µM
# 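Further: secreted proteins added to cultured cells, EdU pulse at the end, nuclei found by Hoechst imaging, EdU status from nuclear versus surrounding ring intensity ratio, PBS as neutral control.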
sequence,measurement,setting,value
MDPRKVNELRAFVKMCKQDPSVLHTEEMRFLREWVESMGGKVPPATQKAKSEENTKEEKPDSKKVEEDLKADEPSSEESDLEIDKEGVIEPDTDAPQEMGDENAEITEEMMDQANDKKVAAIEALNDGELQKAIDLFTDAIKLNPRLAILYAKRASVFVKLQKPNAAIRDCDRAIEINPDSAQPYKWRGKAHRLLGHWEEAAHDLALACKLDYDEDASAMLKEVQPRAQKIAEHRRKYERKREEREIKERIERVKKAREEHERAQREEEARRQSGAQYGSFPGGFPGGMPGNFPGGMPGMGGGMPGMAGMPGLNEILSDPEVLAAMQDPEVMVAFQDVAQNPANMSKYQSNPKVMNLISKLSAKFGGQA,percentage of EdU-negative,MCF7; [1],24.8 ± 1.7%
same,percentage of EdU-negative,MCF7; [2],27.4 ± 0.36%
same,percentage of EdU-negative,hTERT-HMEC; [1],4.96 ± 0.58%
same,percentage of EdU-negative,hTERT-HMEC; [2],5.35 ± 0.39%
MIPFLPMFSLLLLLIVNPINANNHYDKILAHSRIRGRDQGPNVCALQQILGTKKKYFSTCKNWYKKSICGQKTTVLYECCPGYMRMEGMKGCPAVLPIDHVYGTLGIVGATTTQRYSDASKLREEIEGKGSFTYFAPSNEAWDNLDSDIRRGLESNVNVELLNALHSHMINKRMLTKDLKNGMIIPSMYNNLGLFINHYPNGVVTVNCARIIHGNQIATNGVVHVIDRVLTQIGTSIQDFIEAEDDLSSFRAAAITSDILEALGRDGHFTLFAPTNEAFEKLPRGVLERIMGDKVASEALMKYHILNTLQCSESIMGGAVFETLEGNTIEIGCDGDSITVNGIKMVNKKDIVTNNGVIHLIDQVLIPDSAKQVIELAGKQQTTFTDLVAQLGLASALRPDGEYTLLAPVNNAFSDDTLSMDQRLLKLILQNHILKVKVGLNELYNGQILETIGGKQLRVFVYRTAVCIENSCMEKGSKQGRNGAIHIFREIIKPAEKSLHEKLKQDKRFSTFLSLLEAADLKELLTQPGDWTLFVPTNDAFKGMTSEEKEILIRDKNALQNIILYHLTPGVFIGKGFEPGVTNILKTTQGSKIFLKEVNDTLLVNELKSKESDIMTTNGVIHVVDKLLYPADTPVGNDQLLEILNKLIKYIQIKFVRGSTFKEIPVTVYTTKIITKVVEPKIKVIEGSLQPIIKTEGPTLTKVKIEGEPEFRLIKEGETITEVIHGEPIIKKYTKIIDGVPVEITEKETREERIITGPEIKYTRISTGGGETEETLKKLLQEEVTKVTKFIEGGDGHLFEDEEIKRLLQGDTPVRKLQANKKVQGSRRRLREGRSQ,percentage of EdU-negative,MCF7; [3],25.5 ± 0.97%
same,percentage of EdU-negative,MCF7; [4],27.4 ± 1.6%
same,percentage of EdU-negative,hTERT-HMEC; [3],5.41 ± 1.4%
same,percentage of EdU-negative,hTERT-HMEC; [4],5 ± 1.3%
MWSGWWLWPLVAVCTADFFRDEAERIMRDSPVIDGHNDLPWQLLDMFNNRLQDERANLTTLAGTHTNIPKLRAGFVGGQFWSVYTPCDTQNKDAVRRTLEQMDVVHRMCRMYPETFLYVTSSAGIRQAFREGKVASLIGVEGGHSIDSSLGVLRALYQLGMRYLTLTHSCNTPWADNWLVDTGDSEPQSQGLSPFGQRVVKELNRLGVLIDLAHVSVATMKATLQLSRAPVIFSHSSAYSVCASRRNVPDDVLRLVKQTDSLVMVNFYNNYISCTNKANLSQVADHLDHIKEVAGARAVGFGGDFDGVPRVPEGLEDVSKYPDLIAELLRRNWTEAEVKGALADNLLRVFEAVEQASNLTQAPEEEPIPLDQLGGSCRTHYGYSSGASSLHRHWGLLLASLAPLVLCLSLL,percentage of EdU-negative,MCF7; [5],25 ± 0.35%
same,percentage of EdU-negative,MCF7; protein concentration 0.225 µM,25.2 ± 0.86%
same,percentage of EdU-negative,hTERT-HMEC; [5],5.01 ± 0.58%
same,percentage of EdU-negative,hTERT-HMEC; protein concentration 0.225 µM,5.87 ± 0.22%
MQSVQSTSFCLRKQCLCLTFLLLHLLGQVAATQRCPPQCPGRCPATPPTCAPGVRAVLDGCSCCLVCARQRGESCSDLEPCDESSGLYCDRSADPSNQTGICTAVEGDNCVFDGVIYRSGEKFQPSCKFQCTCRDGQIGCVPRCQLDVLLPEPNCPAPRKVEVPGECCEKWICGPDEEDSLGGLTLAAYRPEATLGVEVSDSSVNCIEQTTEWTACSKSCGMGFSTRVTNRNRQCEMLKQTRLCMVRPCEQEPEQPTDKKGKKCLRTKKSLKAIHLQFKNCTSLHTYKPRFCGVCSDGRCCTPHNTKTIQAEFQCSPGQIVKKPVMVIGTCTCHTNCPKNNEAFLQELELKTTRGKM,percentage of EdU-negative,MCF7; [6],26.6 ± 2.9%
same,percentage of EdU-negative,MCF7; protein concentration 0.175 µM,26.7 ± 4.2%
same,percentage of EdU-negative,hTERT-HMEC; [6],4.53 ± 0.15%
same,percentage of EdU-negative,hTERT-HMEC; protein concentration 0.175 µM,15.1 ± 2.2%
MVRARHQPGGLCLLLLLLCQFMEDRSAQAGNCWLRQAKNGRCQVLYKTELSKEECCSTGRLSTSWTEEDVNDNTLFKWMIFNGGAPNCIPCKETCENVDCGPGKKCRMNKKNKPRCVCAPDCSNITWKGPVCGLDGKTYRNECALLKARCKEQPELEVQYQGRCKKTCRDVFCPGSSTCVVDQTNNAYCVTCNRICPEPASSEQYLCGNDGVTYSSACHLRKATCLLGRSIGLAYEGKCIKAKSCEDIQCTGGKKCLWDFKVGRGRCSLCDELCPDSKSDEPVCASDNATYASECAMKEAACSSGVLLEVKHSGSCNSISEDTEEEEEDEDQDYSFPISSILEW,percentage of EdU-negative,MCF7; [7],25.7 ± 1.4%
same,percentage of EdU-negative,MCF7; [8],26.2 ± 0.46%
same,percentage of EdU-negative,hTERT-HMEC; [7],5.35 ± 0.64%
same,percentage of EdU-negative,hTERT-HMEC; [8],6.11 ± 0.15%
MALPFALLMALVVLSCKSSCSLDCDLPQTHSLGHRRTMMLLAQMRRISLFSCLKDRHDFRFPQEEFDGNQFQKAEAISVLHEVIQQTFNLFSTKDSSVAWDERLLDKLYTELYQQLNDLEACVMQEVWVGGTPLMNEDSILAVRKYFQRITLYLTEKKYSPCAWEVVRAEIMRSFSSSRNLQERLRRKE,percentage of EdU-negative,MCF7; [9],48.4 ± 2.7%
same,percentage of EdU-negative,MCF7; protein concentration 0.255 µM,49.64 ± 0.2%
same,percentage of EdU-negative,hTERT-HMEC; [9],15.8 ± 6.2%
same,percentage of EdU-negative,hTERT-HMEC; protein concentration 0.255 µM,27.4 ± 0.99%
